Reference: US20060039927A1 (US Dept. of Health and Human Services, published 2006)

B3: sgp130-Fc (R&D Systems), a fusion protein of sgp130 and human IgG Fc (Fc fusion)
chain: ELLDPCGYISPESPVVQLHSNFTAVCVLKEKCMDYFHVNANYIVWKTNHFTIPKEQYTIINRTASSVTFTDIASLNIQLTCNILTFGQLEQNVYGITIISGLPPEKPKNLSCIVNEGKKMRCEWDGGRETHLETNFTLKSEWATHKFADCKAKRDTPTSCTVDYSTVYFVNIEVWVEAENALGKVTSDHINFDPVYKVKPNPPHNLSVINSEELSSILKLTWTNPSIKSVIILKYNIQYRTKDASTWSQIPPEDTASTRSSFTVQDLKPFTEYVFRIRCMKEDGKGYWSDWSEEASGITYEDRPSKAPSFWYKIDPSHTQGYRTVQLVWKTLPPFEANGKILDYEVTLTRWKSHLQNYTVNATKLTVNLTNDRYLATLTVRNLVGKSDAAVLTIPACDFQATHPVMDLKAFPKDNMLWVEWTTPRESVKKYILEWCVLSDKAPCITDWQQEDGTVHRTYLRGNLAESKCYLITVTPVYADGPGSPESIKAYLKQAPPSKGPTVRTKKVGKNEAVLEWDQLPVDVQNGFIRNYTIFYRTIIGNETAVNVDSSHTEYTLSSLTSDTLYMVRMAAYTDEGGKDGPEFTFTTPKFAQGEIE
notes: extracellular domain; Immobilized on the CM5 chip in the BIAcore work; the results text calls it sgp130; also called immobilized sgp130; not shown: human IgG Fc

How the values were obtained:
[1] = target: T1, maltose binding protein (MBP), control (UniProt P0AEX9 27-392 = MBP); assay: indirect ELISA, receptor immobilized
Protocol: Reactions were visualized by using tetramethoxybenzene peroxidase substrate (Kirkegaard & Perry Laboratories, Gaithersburg, Md.), followed by 2N H2SO4. The interference of vIL-6 binding to sgp130 by mAbs was analyzed in a similar manner. […] The mixture was applied to the plates coated with sgp130 (2 μg/ml) after SuperBlock treatment. The protein complex was detected by streptavidin-HRP (1:1000; Kirkegaard & Perry Laboratories), and the peroxidase activity was visualized by tetramethoxybenzene peroxidase substrate, followed by 2N H₂SO₄. Plates were read at 450 nm with λ correction at 630 m using a microplate reader.

[2] = target: B3; assay: SPR Kd of this filing against a previously reported Kd (1.7 nM) of the human IL-6/sIL-6Rα complex
[3] = target: B3; assay: SPR (BIAcore 2000), equilibrium data, Scatchard analysis, sgp130-Fc immobilized
[4] = target: B3; assay: SPR (BIAcore 2000), sgp130-Fc immobilized on CM5, MBPvIL-6 in flow, 1:1 Langmuir binding model
[5] = target: T1, maltose binding protein (MBP), control; assay: surface plasmon resonance (BIAcore 2000), sgp130 immobilized at 1.5 ng/mm2

B1: purified recombinant human sIL-6Rα (R&D Systems) (receptor)
chain: LAPRRCPAQEVARGVLTSLPGDSVTLTCPGVEPEDNATVHWVLRKPAAGSHPSRWAGMGRRLLLRSVQLHDSGNYSCYRAGRPAGTVHLLVDVPPEEPQLSCFRKSPLSNVVCEWGPRSTPSLTTKAVLLVRKFQNSPAEDFQEPCQYSQESQKFSCQLAVPEGDSSFYIVSMCVASSVGSKFSKTQTFQGCGILQPDPPANITVTAVARNPRWLSVTWQDPHSWNSSFYRLRFELRYRAERSKTFTTWMVKDLQHHCVIHDAWSGLRHVVQLRAQEEFGQGEWSEWSPEAMGTPWTESRSPPAENEVSTPMQALTTNKDDDNILFRDSANATSLPVQDSSSVPLP
notes: extracellular domain; Bought; also called soluble IL-6Rα
B1: no binding [1].

B2: MBPvIL-6 (fusion of maltose binding protein, a factor Xa cleavage site and amino acids 22-204 of KSHV vIL-6) (ligand)
chain: GKLPDAPEFEKDLLIQRLNWMLWVIDECFRDLCYRTGICKGILEPAAIFHLKLPAINDTDHCGLIGFNETSCLKKLADGFFEFEVLFKFLTTEFGKSVINVDVMELLTKTLGWDIQEELNKLTKTHYSPPKFDRGLLGRLQGLKYWVRHFASFYVLSAMEKFAGQAVRVLNSIPDVTPDVHDK
modifications: biotinylated in the sgp130 interference ELISA (sites not given)
notes: range 22-204; also called recombinant vIL-6; full length MBPvIL-6; not shown: factor Xa cleavage site and vector linker between MBP and vIL-6
In the case of B2, the “fold lower binding affinity than human IL-6/sIL-6Rα complex to gp130” value [2] is reported as 1000 fold, the Kd [3] is reported as 2.5 µM and the Kd [4] is reported as 2.2 µM. The koff [4] was 0.0022 s⁻¹ and the kon [4] was 980 M⁻¹ s⁻¹.

B3: no binding [5].

B4: purified recombinant human sgp130 (R&D Systems) (receptor)
chain: ELLDPCGYISPESPVVQLHSNFTAVCVLKEKCMDYFHVNANYIVWKTNHFTIPKEQYTIINRTASSVTFTDIASLNIQLTCNILTFGQLEQNVYGITIISGLPPEKPKNLSCIVNEGKKMRCEWDGGRETHLETNFTLKSEWATHKFADCKAKRDTPTSCTVDYSTVYFVNIEVWVEAENALGKVTSDHINFDPVYKVKPNPPHNLSVINSEELSSILKLTWTNPSIKSVIILKYNIQYRTKDASTWSQIPPEDTASTRSSFTVQDLKPFTEYVFRIRCMKEDGKGYWSDWSEEASGITYEDRPSKAPSFWYKIDPSHTQGYRTVQLVWKTLPPFEANGKILDYEVTLTRWKSHLQNYTVNATKLTVNLTNDRYLATLTVRNLVGKSDAAVLTIPACDFQATHPVMDLKAFPKDNMLWVEWTTPRESVKKYILEWCVLSDKAPCITDWQQEDGTVHRTYLRGNLAESKCYLITVTPVYADGPGSPESIKAYLKQAPPSKGPTVRTKKVGKNEAVLEWDQLPVDVQNGFIRNYTIFYRTIIGNETAVNVDSSHTEYTLSSLTSDTLYMVRMAAYTDEGGKDGPEFTFTTPKFAQGEIE
notes: extracellular domain; Used in the ELISA assays; Bought; also called soluble gp130
B4: no binding [1].
